Test results from patent publication US20150355179A1, “CDKACT BIOSENSORS-FLUORESCENT POLYPEPTIDE TO PROBE THE ACTIVITY OF CDK/CYCLIN KINASES IN VITRO, IN CELLULO AND IN VIVO” (CENTRE NATIONAL DE LA RECHERCHE SCIENTIFIQUE (CNRS), priority 2012, published 2015).

Experiments:
[1] = molecular target: T1, CDK2/Cyclin A (Homo sapiens, UniProt P24941); assay: Real-time fluorescence kinase assay with recombinant active CDK2/Cyclin A; assay type: biochemical
T1 construct: made in house; host or cells: E. coli
Protocol: (§1) In order to characterize CDKACT-H1 biosensor in vitro, we first asked whether it could be used to monitor recombinant kinase activity in a real-time assay.
(§2) Fluorescence kinase assays were performed in 96-well plates in a thermostated chamber (Polarstar BMG) at 30° C. in 200 ul phosphate buffer saline, pH 7.2, 150 mM NaCl, in the presence of 5 mM MgCl2, 0.5 mM ATP, except when stated otherwise. The fluorescence of Cy3-labelled CDKACTH1 with recombinant CDK/Cyclin complexes or with cell extracts was monitored over time. Changes in Cy3 fluorescence emission were recorded at 590 nm following excitation at 544 nm. In all experiments, the fluorescence of CDKACTH1-Cy3 alone was substracted from all other values. Data analysis and curve fitting were performed using the GraFit Software (Erathicus Ltd).
as §1
In vitro characterization was performed as described in Example 2. […] Assays were performed at 30° C. for 1600s. Fluorescence emission of Cy5 was measured at 675 nm following excitation at 645 nm on Polarstar™ fluorimeter.
Assays were performed at 30° C. for 1600s. Fluorescence emission of Cy3 was measured at 590 nm following excitation at 544 nm on Polarstar™ fluorimeter.

[2] = molecular target: T2, GST-CDK2/Cyclin A (Homo sapiens, UniProt P24941); assay: Radioactive endpoint kinase assay with GST-CDK2/Cyclin A; assay type: biochemical; settings: radioactive gamma-ATP, 30 min at 30° C., histone H1 positive control
T2 construct: made in house; host or cells: E. coli
Protocol: In order to characterize […]1 biosensor in vitro, we first asked whether it could be used to monitor recombinant kinase activity in a real-time assay. […] A kinase assay was performed by addition of GST-CDK2/CIV complexed with His-Cyclin A to […]1, in the presence of 0.5 mM ATP and 5 mM MgCl2, and […]1 fluorescence was monitored over time. Phosphorylation of 5 uM […]1 or histone H1 were performed in 50 mM Tris pH 7.5, 5 mM MgCl2, 0.5 mM ATP, and 33P-gamma-ATP for 30 min at 30° C. The reaction was stopped by addition of Laemmli buffer, and samples were run on SDS-PAGE then exposed by autoradiography.

[3] = molecular target: Plk1 (Homo sapiens, UniProt P53350); assay: Real-time fluorescence kinase assay with Plk1 kinase (specificity); assay type: biochemical; settings: 25 nM CDKACTH1, 25, 50, 75 nM Plk1
Protocol: as §2
(§3) To address the issue of specificity, we asked whether other kinases could phosphorylate and thereby affect the fluorescence of CDKACTH1. We first examined CDK1/Cyclin B and CDK4/Cyclin D (FIGS. 3A and B).

[4] = Solubility of the biosensor after removal of the GST tag; assay type: physicochemical
Protocol: The […]1 biosensor was engineered by cloning residues 367-603 of PBD from Plk1 into the pGex6[…]. […]1 was expressed in E. coli, then purified on High performance glutathione Sepharose in 50 mM TrisHCl, pH 7.4, 150 mM NaCl, then further purified by Gel Filtration chromatography. […] Following purification, […]1 was labelled with a 10fold molar excess Cy3-maleimide and further purified on NAPS columns to remove excess label.

[5] = molecular target: T3, CDK4/Cyclin D (Homo sapiens, UniProt P11802); assay: Real-time fluorescence kinase assay with recombinant CDK4/Cyclin D; assay type: biochemical; settings: dependent on MgCl2/ATP
T3 construct: made in house; host or cells: E. coli
Protocol: as §2, §3

[6] = molecular target: T4, CDK1/Cyclin B (Homo sapiens, UniProt P06493); assay: Real-time fluorescence kinase assay with recombinant CDK1/Cyclin B; assay type: biochemical
T4 construct: made in house; host or cells: E. coli
Protocol: as §2, §3

[7] = molecular target: T5, GST-CDK1-Cyclin B (Homo sapiens, UniProt P06493); assay: Radioactive endpoint kinase assay with GST-CDK1-Cyclin B; assay type: biochemical; settings: radioactive gamma-ATP, 30 min at 30° C., histone H1 positive control
T5 construct: made in house; host or cells: E. coli

[8] = molecular target: Plk3 (Homo sapiens, UniProt Q9H4B4); assay: Real-time fluorescence kinase assay with Plk3 kinase (specificity); assay type: biochemical; settings: 25 nM CDKACTH1, 25, 50, 75 nM Plk3
Protocol: as §2, §3

T4 sequence (P06493 whole entry, species assumed): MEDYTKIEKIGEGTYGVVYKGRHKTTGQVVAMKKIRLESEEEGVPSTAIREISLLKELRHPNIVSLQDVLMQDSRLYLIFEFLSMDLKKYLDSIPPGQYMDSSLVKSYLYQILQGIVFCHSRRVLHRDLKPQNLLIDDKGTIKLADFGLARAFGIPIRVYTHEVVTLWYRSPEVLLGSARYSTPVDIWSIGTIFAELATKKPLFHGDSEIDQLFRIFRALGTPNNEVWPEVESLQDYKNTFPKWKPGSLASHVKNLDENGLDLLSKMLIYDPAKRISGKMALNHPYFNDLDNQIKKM
T4 sequence (P14635 whole entry partner, species assumed): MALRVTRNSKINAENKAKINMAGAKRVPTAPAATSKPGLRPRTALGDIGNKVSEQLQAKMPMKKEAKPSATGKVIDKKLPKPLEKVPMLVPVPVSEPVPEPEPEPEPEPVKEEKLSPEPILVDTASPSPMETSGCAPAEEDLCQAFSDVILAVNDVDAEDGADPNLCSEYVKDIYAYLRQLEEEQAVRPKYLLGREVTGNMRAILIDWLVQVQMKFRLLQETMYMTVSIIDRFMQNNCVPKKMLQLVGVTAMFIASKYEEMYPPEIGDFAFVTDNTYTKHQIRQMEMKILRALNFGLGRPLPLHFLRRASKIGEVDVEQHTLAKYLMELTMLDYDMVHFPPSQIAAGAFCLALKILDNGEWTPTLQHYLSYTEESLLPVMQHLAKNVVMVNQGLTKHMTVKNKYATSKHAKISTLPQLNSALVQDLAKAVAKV
T3 sequence (P11802 whole entry, species assumed): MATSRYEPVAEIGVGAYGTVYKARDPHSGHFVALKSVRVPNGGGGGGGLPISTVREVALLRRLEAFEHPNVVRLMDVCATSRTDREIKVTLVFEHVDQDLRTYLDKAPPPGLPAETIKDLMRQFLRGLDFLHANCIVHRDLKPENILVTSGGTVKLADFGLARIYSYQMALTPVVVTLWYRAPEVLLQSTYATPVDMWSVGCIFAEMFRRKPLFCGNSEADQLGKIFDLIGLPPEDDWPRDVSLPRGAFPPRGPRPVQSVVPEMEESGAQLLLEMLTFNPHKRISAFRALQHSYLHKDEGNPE
T3 sequence (P24385 whole entry partner, species assumed): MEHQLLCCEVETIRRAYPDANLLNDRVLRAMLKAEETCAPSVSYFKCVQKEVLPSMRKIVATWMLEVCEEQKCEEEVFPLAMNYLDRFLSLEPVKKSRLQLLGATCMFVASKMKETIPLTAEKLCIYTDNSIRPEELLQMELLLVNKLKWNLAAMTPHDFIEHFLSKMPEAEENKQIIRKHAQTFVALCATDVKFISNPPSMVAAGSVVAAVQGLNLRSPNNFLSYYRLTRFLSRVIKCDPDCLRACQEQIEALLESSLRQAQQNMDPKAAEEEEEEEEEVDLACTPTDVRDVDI
T5 sequence (P06493 whole entry, species assumed): as the sequence (P06493 whole entry, species assumed) above
T5 sequence (P14635 whole entry partner, species assumed): as the sequence (P14635 whole entry partner, species assumed) above
Plk3, sequence (Q9H4B4 whole entry, species assumed): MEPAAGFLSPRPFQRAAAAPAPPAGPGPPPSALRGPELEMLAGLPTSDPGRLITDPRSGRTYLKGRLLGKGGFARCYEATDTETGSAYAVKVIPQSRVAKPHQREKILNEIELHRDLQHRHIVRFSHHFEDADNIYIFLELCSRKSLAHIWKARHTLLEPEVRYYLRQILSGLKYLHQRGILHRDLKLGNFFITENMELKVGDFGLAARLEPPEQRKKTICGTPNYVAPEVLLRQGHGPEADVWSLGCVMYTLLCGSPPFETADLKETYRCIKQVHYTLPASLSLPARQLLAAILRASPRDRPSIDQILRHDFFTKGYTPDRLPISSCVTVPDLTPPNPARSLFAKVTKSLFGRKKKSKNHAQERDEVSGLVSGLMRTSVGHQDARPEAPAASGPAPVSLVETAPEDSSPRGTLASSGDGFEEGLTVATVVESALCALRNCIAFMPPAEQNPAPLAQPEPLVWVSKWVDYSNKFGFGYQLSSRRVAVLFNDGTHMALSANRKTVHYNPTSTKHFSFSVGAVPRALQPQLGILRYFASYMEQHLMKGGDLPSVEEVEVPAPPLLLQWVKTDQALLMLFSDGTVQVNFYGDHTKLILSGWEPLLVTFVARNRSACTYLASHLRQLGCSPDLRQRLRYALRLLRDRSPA
Plk1, sequence (P53350 whole entry): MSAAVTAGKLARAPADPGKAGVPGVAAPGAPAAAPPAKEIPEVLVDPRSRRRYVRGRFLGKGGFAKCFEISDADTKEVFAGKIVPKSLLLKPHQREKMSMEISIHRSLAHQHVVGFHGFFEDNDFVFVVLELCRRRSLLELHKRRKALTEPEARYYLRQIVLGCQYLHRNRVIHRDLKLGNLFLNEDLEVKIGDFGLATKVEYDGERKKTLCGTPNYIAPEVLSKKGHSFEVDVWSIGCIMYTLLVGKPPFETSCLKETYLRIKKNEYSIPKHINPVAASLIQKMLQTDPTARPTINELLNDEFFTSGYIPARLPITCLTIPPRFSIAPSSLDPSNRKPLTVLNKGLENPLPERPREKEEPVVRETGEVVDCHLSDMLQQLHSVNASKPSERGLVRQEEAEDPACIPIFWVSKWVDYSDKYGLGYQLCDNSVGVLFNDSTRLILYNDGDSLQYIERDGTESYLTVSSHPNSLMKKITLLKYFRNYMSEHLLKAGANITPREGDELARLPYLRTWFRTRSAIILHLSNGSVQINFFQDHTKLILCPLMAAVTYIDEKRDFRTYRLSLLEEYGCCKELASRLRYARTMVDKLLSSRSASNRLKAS

B1: CDKACTH1 (protein)
chain: GEVVDSHLSDMLQQLHSVNASKPSERGLVRQEEAEDPASIPIFWVSKWVDYSDKYGLGYQLSDNSVGVLFNDSTRLILYNDGDSLQYIERDGTESYLTVSSHPNSLMKKITLLKYFRNYMSEHLLKAGANITPREGDELARLPYLRTWFRTRSAIILHLSNGSVQINFFQDHTKLILSPLMAAVTYIDEKRDFRTYRLSLLEEYGSSKELASRLRYARTMVDKLLSSRSASNRLKASPGAGGTGGLPGGGGCSTPKKAKKL
modifications: left off: a dimerising Fc or GST
[1]; for 25-50 nM CDK2/CyclinA
  sensor concentration giving the best response: 25 nM
[2]
  phosphorylation of the biosensor in standard radioactive kinase assay: is phosphorylated
[3]
  change in CDKACTH1 fluorescence induced by the kinase: did not induce any significant changes
[4]
  solubility upon removal of the GST tag: complete precipitation
[5]
  change in CDKACTH1 fluorescence induced by the kinase: reminiscent of CDK2/Cyclin A
[6]
  phosphorylation of the biosensor by the kinase (fluorescence assay): indeed phosphorylated
[6]; for 50-100 nM CDK1/Cyclin B
  sensor concentration giving the optimal response: 10 nM
[7]
  phosphorylation of the biosensor in standard radioactive kinase assay: is phosphorylated
[8]
  change in CDKACTH1 fluorescence induced by the kinase: did not induce any significant changes

B2: unlabelled sensor: CDKACTH1 biosensor without fluorescent label, used as competitive substrate (protein)
chain: B1 chain
modifications: left off: a dimerising Fc or GST
[1]; 25 nM CDKACTH1-Cy3, 25 nM CDK2/Cyclin A, 25 or 100 nM unlabelled CDKACTH1, 25 or 500 nM histone
  competition assay: effect on phosphorylation of CDKACTH1: prevented full phosphorylation
